# In the RNAGym collection of RNA variant scans (doi:10.7554/elife.80360):
# B1: CPEB3 Ribozyme (parent)
# chain: GGGGGCCACAGCAGAAGCGUUCACGUCGCGGCCCCUGUCAGAUUCUGGUGAAUCUGCGAAUUCUGCUGU
# Variants of: B1
# Test: self-cleavage, relative activity (ratio to wild type); higher = more cleavage; co-transcriptional
row,Variant,self-cleavage
1,GGGGGCCACAGCAGAAGCGUUCACGUCGCGGCCCCUGUCAGAUUCUGUUGAAUCUGCGAAUUCUGUUGU [G48U C66U],0.978
2,GGGGGCCACAGCAGAAGCGUUCACGUCGCGGCCCCUGUCAGAUUCUGUUGAAUCUGCGAAUUCUGAUGU [G48U C66A],0.923
3,GGGGGCCACAGCAGAAGCGUUCACGUCGCGGCCCCUGUCAGAUUCUGUUUAAUCUGCGAAUUCUGCUGU [G48U G50U],0.99
4,GGGGGCCACAGCAGAAGCGUUCACGUCGCGGCCCCUGUCAGAUUCUGUUAAAUCUGCGAAUUCUGCUGU [G48U G50A],1.03
5,GGGGGCCACAGCAGAAGCGUUCACGUCGCGGCCCCUGUCAGAUUCUGUUCAAUCUGCGAAUUCUGCUGU [G48U G50C],1.01
6,GGGGGCCACAGCAGAAGCGUUCACGUCGCGGCCCCUGUCAGAUUCUGUUGAAUCUACGAAUUCUGCUGU [G48U G56A],0.945
7,GGGGGCCACAGCAGAAGCGUUCACGUCGCGGCCCCUGUCAGAUUCUGUUGAAUCUUCGAAUUCUGCUGU [G48U G56U],0.994
8,GGGGGCCACAGCAGAAGCGUUCACGUCGCGGCCCCUGUCAGAUUCUGUUGAAUCUCCGAAUUCUGCUGU [G48U G56C],0.865
9,GGGGGCCACAGCAGAAGCGUUCACGUCGCGGCCCCUGUCAGAUUCUGUCGAAUCUGCGAAUUCUGCUGU [G48U U49C],0.981
10,GGGGGCCACAGCAGAAGCGUUCACGUCGCGGCCCCUGUCAGAUUCUGUGGAAUCUGCGAAUUCUGCUGU [G48U U49G],1.01
11,GGGGGCCACAGCAGAAGCGUUCACGUCGCGGCCCCUGUCAGAUUCUGUAGAAUCUGCGAAUUCUGCUGU [G48U U49A],1.02
12,GGGGGCCACAGCAGAAGCGUUCACGUCGCGGCCCCUGUCAGAUUCUGUUGAGUCUGCGAAUUCUGCUGU [G48U A52G],0.983
13,GGGGGCCACAGCAGAAGCGUUCACGUCGCGGCCCCUGUCAGAUUCUGUUGACUCUGCGAAUUCUGCUGU [G48U A52C],0.987
14,GGGGGCCACAGCAGAAGCGUUCACGUCGCGGCCCCUGUCAGAUUCUGUUGAUUCUGCGAAUUCUGCUGU [G48U A52U],0.969
15,GGGGGCCACAGCAGAAGCGUUCACGUCGCGGCCCCUGUCAGAUUCUGGAGAAUCUGCGGAUUCUGCUGU [U49A A59G],0.995
16,GGGGGCCACAGCAGAAGCGUUCACGUCGCGGCCCCUGUCAGAUUCUGGAGAAUCUGCGUAUUCUGCUGU [U49A A59U],0.85
17,GGGGGCCACAGCAGAAGCGUUCACGUCGCGGCCCCUGUCAGAUUCUGGAGAAUCUGCGCAUUCUGCUGU [U49A A59C],0.798
18,GGGGGCCACAGCAGAAGCGUUCACGUCGCGGCCCCUGUCAGAUUCUGCUGAAUCUGCGAACUCUGCUGU [G48C U61C],0.866
19,GGGGGCCACAGCAGAAGCGUUCACGUCGCGGCCCCUGUCAGAUUCUGCUGAAUCUGCGAAGUCUGCUGU [G48C U61G],0.907
20,GGGGGCCACAGCAGAAGCGUUCACGUCGCGGCCCCUGUCAGAUUCUGGAGAGUCUGCGAAUUCUGCUGU [U49A A52G],0.979
21,GGGGGCCACAGCAGAAGCGUUCACGUCGCGGCCCCUGUCAGAUUCUGGAGUAUCUGCGAAUUCUGCUGU [U49A A51U],1
22,GGGGGCCACAGCAGAAGCGUUCACGUCGCGGCCCCUGUCAGAUUCUGCUGAAUCUGCGAAUGCUGCUGU [G48C U62G],0.913
23,GGGGGCCACAGCAGAAGCGUUCACGUCGCGGCCCCUGUCAGAUUCUGCUGAAUCAGCGAAUUCUGCUGU [G48C U55A],1
24,GGGGGCCACAGCAGAAGCGUUCACGUCGCGGCCCCUGUCAGAUUCUGUUGAAGCUGCGAAUUCUGCUGU [G48U U53G],0.94
25,GGGGGCCACAGCAGAAGCGUUCACGUCGCGGCCCCUGUCAGAUUCUGUUGAACCUGCGAAUUCUGCUGU [G48U U53C],1.04
26,GGGGGCCACAGCAGAAGCGUUCACGUCGCGGCCCCUGUCAGAUUCUGUUGAAUCUGCGAAUUCUGCUGC [G48U U69C],1.04

row,Variant,self-cleavage
1,GGGGGCCACAGCAGAAGCGUUCACGUCGCGGCCCCUGUCAGAUUCUGUUGAAUCUGCGAAUUCUGCUGA [G48U U69A],1.01
2,GGGGGCCACAGCAGAAGCGUUCACGUCGCGGCCCCUGUCAGAUUCUGUUGAAUCUGCGAAUUCUGCUGG [G48U U69G],1.05
3,GGGGGCCACAGCAGAAGCGUUCACGUCGCGGCCCCUGUCAGAUUCUGUUGAAUCUGCGCAUUCUGCUGU [G48U A59C],0.739
4,GGGGGCCACAGCAGAAGCGUUCACGUCGCGGCCCCUGUCAGAUUCUGUUGAAUCUGCGUAUUCUGCUGU [G48U A59U],0.881
5,GGGGGCCACAGCAGAAGCGUUCACGUCGCGGCCCCUGUCAGAUUCUGUUGAAUCUGCGAAUUCUUCUGU [G48U G65U],0.909
6,GGGGGCCACAGCAGAAGCGUUCACGUCGCGGCCCCUGUCAGAUUCUGUUGAAUCUGCGAAUUCUCCUGU [G48U G65C],0.798
7,GGGGGCCACAGCAGAAGCGUUCACGUCGCGGCCCCUGUCAGAUUCUGUUGAAUCUGCGACUUCUGCUGU [G48U A60C],0.362
8,GGGGGCCACAGCAGAAGCGUUCACGUCGCGGCCCCUGUCAGAUUCUGUUGAAUCUGCGAGUUCUGCUGU [G48U A60G],0.979
9,GGGGGCCACAGCAGAAGCGUUCACGUCGCGGCCCCUGUCAGAUUCUGUUGAAUCUGCGAAUUCUGCCGU [G48U U67C],1
10,GGGGGCCACAGCAGAAGCGUUCACGUCGCGGCCCCUGUCAGAUUCUGUUGAAUCUGCGAAUUCUGCAGU [G48U U67A],1.01
11,GGGGGCCACAGCAGAAGCGUUCACGUCGCGGCCCCUGUCAGAUUCUGUUGAAUCUGCGAAUUCUGCGGU [G48U U67G],1.05
12,GGGGGCCACAGCAGAAGCGUUCACGUCGCGGCCCCUGUCAGAUUCUGCUGAAUCUCCGAAUUCUGCUGU [G48C G56C],0.778
13,GGGGGCCACAGCAGAAGCGUUCACGUCGCGGCCCCUGUCAGAUUCUGCUGAAUCUGCGAAUUCUGCCGU [G48C U67C],0.998
14,GGGGGCCACAGCAGAAGCGUUCACGUCGCGGCCCCUGUCAGAUUCUGCUGAAUCUGCGAAUUCUGCAGU [G48C U67A],1.01
15,GGGGGCCACAGCAGAAGCGUUCACGUCGCGGCCCCUGUCAGAUUCUGCUGAAUCUGCGAAUUCUGCGGU [G48C U67G],1.04
16,GGGGGCCACAGCAGAAGCGUUCACGUCGCGGCCCCUGUCAGAUUCUGCUGAAGCUGCGAAUUCUGCUGU [G48C U53G],0.913
17,GGGGGCCACAGCAGAAGCGUUCACGUCGCGGCCCCUGUCAGAUUCUGCUGAACCUGCGAAUUCUGCUGU [G48C U53C],0.96
18,GGGGGCCACAGCAGAAGCGUUCACGUCGCGGCCCCUGUCAGAUUCUGCUGAAUCUGCGAAUUCUGCUGC [G48C U69C],1.06
19,GGGGGCCACAGCAGAAGCGUUCACGUCGCGGCCCCUGUCAGAUUCUGUUGAAUCUGCGAAUCCUGCUGU [G48U U62C],0.929
20,GGGGGCCACAGCAGAAGCGUUCACGUCGCGGCCCCUGUCAGAUUCUGCAGAAUCUGCGAAUUCUGCUGU [G48C U49A],0.976
21,GGGGGCCACAGCAGAAGCGUUCACGUCGCGGCCCCUGUCAGAUUCUGCGGAAUCUGCGAAUUCUGCUGU [G48C U49G],1.06
22,GGGGGCCACAGCAGAAGCGUUCACGUCGCGGCCCCUGUCAGAUUCUGCCGAAUCUGCGAAUUCUGCUGU [G48C U49C],0.993
23,GGGGGCCACAGCAGAAGCGUUCACGUCGCGGCCCCUGUCAGAUUCUGCUGAAUCUGCCAAUUCUGCUGU [G48C G58C],0.974
24,GGGGGCCACAGCAGAAGCGUUCACGUCGCGGCCCCUGUCAGAUUCUGCUGAAUCUGCAAAUUCUGCUGU [G48C G58A],0.917
25,GGGGGCCACAGCAGAAGCGUUCACGUCGCGGCCCCUGUCAGAUUCUGUUGAAUCUGAGAAUUCUGCUGU [G48U C57A],0.316
26,GGGGGCCACAGCAGAAGCGUUCACGUCGCGGCCCCUGUCAGAUUCUGUUGAAUCUGCGAAUUCAGCUGU [G48U U64A],0.96

row,Variant,self-cleavage
1,GGGGGCCACAGCAGAAGCGUUCACGUCGCGGCCCCUGUCAGAUUCUGUUGAAUCUGCGAAUUCGGCUGU [G48U U64G],0.955
2,GGGGGCCACAGCAGAAGCGUUCACGUCGCGGCCCCUGUCAGAUUCUGUUGAAUCUGCGAAUUCCGCUGU [G48U U64C],0.876
3,GGGGGCCACAGCAGAAGCGUUCACGUCGCGGCCCCUGUCAGAUUCUGUUGAAUCUGCGAAUUCUGCUGU [G48U],0.999
4,GGGGGCCACAGCAGAAGCGUUCACGUCGCGGCCCCUGUCAGAUUCUGUUGAAUCCGCGAAUUCUGCUGU [G48U U55C],0.977
5,GGGGGCCACAGCAGAAGCGUUCACGUCGCGGCCCCUGUCAGAUUCUGUUGAAUCGGCGAAUUCUGCUGU [G48U U55G],0.968
6,GGGGGCCACAGCAGAAGCGUUCACGUCGCGGCCCCUGUCAGAUUCUGUUGAAUCUGCGAAUUUUGCUGU [G48U C63U],1.03
7,GGGGGCCACAGCAGAAGCGUUCACGUCGCGGCCCCUGUCAGAUUCUGUUGAAUCUGCGAAUUGUGCUGU [G48U C63G],0.878
8,GGGGGCCACAGCAGAAGCGUUCACGUCGCGGCCCCUGUCAGAUUCUGUUGAAUCUGCGAAUUAUGCUGU [G48U C63A],0.956
9,GGGGGCCACAGCAGAAGCGUUCACGUCGCGGCCCCUGUCAGAUUCUGUUGAAUGUGCGAAUUCUGCUGU [G48U C54G],1.03
10,GGGGGCCACAGCAGAAGCGUUCACGUCGCGGCCCCUGUCAGAUUCUGUUGAAUCUGCGAAUUCUGCUUU [G48U G68U],1.04
11,GGGGGCCACAGCAGAAGCGUUCACGUCGCGGCCCCUGUCAGAUUCUGUUGAAUCUGCGAAUUCUGCUCU [G48U G68C],1.05
12,GGGGGCCACAGCAGAAGCGUUCACGUCGCGGCCCCUGUCAGAUUCUGUUGAAUCUGCGAAUUCUGCUAU [G48U G68A],1.04
13,GGGGGCCACAGCAGAAGCGUUCACGUCGCGGCCCCUGUCAGAUUCUGUUGAAUCUGCAAAUUCUGCUGU [G48U G58A],0.963
14,GGGGGCCACAGCAGAAGCGUUCACGUCGCGGCCCCUGUCAGAUUCUGUUGAAUCUGCUAAUUCUGCUGU [G48U G58U],0.999
15,GGGGGCCACAGCAGAAGCGUUCACGUCGCGGCCCCUGUCAGAUUCUGGAGAAUCUGCGACUUCUGCUGU [U49A A60C],0.394
16,GGGGGCCACAGCAGAAGCGUUCACGUCGCGGCCCCUGUCAGAUUCUGGAGAAUCUGCGAGUUCUGCUGU [U49A A60G],0.915
17,GGGGGCCACAGCAGAAGCGUUCACGUCGCGGCCCCUGUCAGAUUCUGCUGAAUCUGCGAAUUCCGCUGU [G48C U64C],0.938
18,GGGGGCCACAGCAGAAGCGUUCACGUCGCGGCCCCUGUCAGAUUCUGUUGUAUCUGCGAAUUCUGCUGU [G48U A51U],1
19,GGGGGCCACAGCAGAAGCGUUCACGUCGCGGCCCCUGUCAGAUUCUGUUGGAUCUGCGAAUUCUGCUGU [G48U A51G],0.959
20,GGGGGCCACAGCAGAAGCGUUCACGUCGCGGCCCCUGUCAGAUUCUGUUGCAUCUGCGAAUUCUGCUGU [G48U A51C],0.978
21,GGGGGCCACAGCAGAAGCGUUCACGUCGCGGCCCCUGUCAGAUUCUGCUGAAUCUGCGAAUUCUGCUAU [G48C G68A],0.971
22,GGGGGCCACAGCAGAAGCGUUCACGUCGCGGCCCCUGUCAGAUUCUGCUGAAUCUGCGAAUUCUCCUGU [G48C G65C],0.775
23,GGGGGCCACAGCAGAAGCGUUCACGUCGCGGCCCCUGUCAGAUUCUGCUGAAUCUGCGAAUUCUACUGU [G48C G65A],0.926
24,GGGGGCCACAGCAGAAGCGUUCACGUCGCGGCCCCUGUCAGAUUCUGCUGAAUCUGCGAAUUCUUCUGU [G48C G65U],0.869
25,GGGGGCCACAGCAGAAGCGUUCACGUCGCGGCCCCUGUCAGAUUCUGUUGAAUCUGCGAAAUCUGCUGU [G48U U61A],0.924
26,GGGGGCCACAGCAGAAGCGUUCACGUCGCGGCCCCUGUCAGAUUCUGUUGAAUCUGCGAACUCUGCUGU [G48U U61C],0.905
